# Assay results: PMC6969021
# Columns and labels:
# [1] = target: firefly luciferase (FLuc), wild type (Photinus pyralis) [luciferase: P08659]
# [2] = target: FLucNC-Atto532 (Photinus pyralis); test: AUC; sedimentation velocity, detection at 532 nm; GuHCl-denatured FLuc-Atto532 diluted to 200 nM in folding buffer with 3 µM DnaK, 1 µM DnaJ, 5 mM ATP
# DnaJ, sequence (P08622 whole entry): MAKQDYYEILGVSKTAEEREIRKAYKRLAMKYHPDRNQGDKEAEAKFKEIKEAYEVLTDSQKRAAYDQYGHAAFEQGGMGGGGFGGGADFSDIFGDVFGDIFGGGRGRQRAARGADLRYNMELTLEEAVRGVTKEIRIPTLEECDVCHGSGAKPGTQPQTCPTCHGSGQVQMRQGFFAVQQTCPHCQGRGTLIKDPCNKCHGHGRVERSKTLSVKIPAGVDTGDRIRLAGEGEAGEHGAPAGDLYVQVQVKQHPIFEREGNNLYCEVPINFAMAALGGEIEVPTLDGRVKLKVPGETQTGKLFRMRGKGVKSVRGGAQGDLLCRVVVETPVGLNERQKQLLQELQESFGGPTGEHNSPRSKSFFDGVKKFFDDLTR
# DnaK, sequence (P0A6Y8 whole entry): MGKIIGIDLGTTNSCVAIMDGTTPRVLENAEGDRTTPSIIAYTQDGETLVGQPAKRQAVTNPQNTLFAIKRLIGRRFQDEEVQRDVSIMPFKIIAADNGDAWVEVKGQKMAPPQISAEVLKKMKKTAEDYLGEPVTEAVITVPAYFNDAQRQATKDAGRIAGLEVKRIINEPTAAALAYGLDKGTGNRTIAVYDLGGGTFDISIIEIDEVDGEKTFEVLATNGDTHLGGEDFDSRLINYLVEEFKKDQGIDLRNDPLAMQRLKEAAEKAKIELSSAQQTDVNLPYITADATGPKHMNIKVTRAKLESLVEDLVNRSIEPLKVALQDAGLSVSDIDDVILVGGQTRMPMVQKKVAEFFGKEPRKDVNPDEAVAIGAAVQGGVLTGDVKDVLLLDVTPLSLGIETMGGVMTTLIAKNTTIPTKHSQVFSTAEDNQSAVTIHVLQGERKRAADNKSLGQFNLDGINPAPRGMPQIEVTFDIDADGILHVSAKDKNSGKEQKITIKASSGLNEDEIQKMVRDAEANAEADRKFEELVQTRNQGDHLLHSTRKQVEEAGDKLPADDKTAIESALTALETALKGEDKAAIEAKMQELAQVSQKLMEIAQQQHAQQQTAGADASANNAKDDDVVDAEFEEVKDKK
Substance,yield of luminescence refolding of FLuc in the presence of KJE without ATP [1] [%],stoichiometry N (DnaK per FLuc) [2]
DnaJ (from UniProt P08622 1-376) (natural protein),40,
DnaK (from UniProt P0A6Y8 1-638) (natural protein),,12
